Experimental data: the DeepSol protein solubility set

experiment: soluble on expression in E. coli; label from the status in PepcDB or PDB records

Sequence	soluble on expression in E. coli
MSLAFYIATFDIGTTEVKAALADRDGGLHFQRSIALETYGDGNGPVEQDAGDWYDAVQRIASSWWQSGVDARRVSAIVLSGQMQNFLPLDQDHEPLHRAVLYSDKRPLKEAEEINARHGADNLWSALENPMTAASILPKLVFWRASFPQAFGRLRHVVLGAKDYVVLRLTGRHATDRTNASTTGLYRPKDDAWHVELLADYGFSLDLMPRLLEPGEQVGGVSALAARQTGFVSGTPVLCGLGDAGAATLGVGVLDDEDAYLHLGTTGWLARLTQTDPVGDMPVGTIFRLAGIIAGKTLQVAPVLNAGNILQWALTLVGHRPGEDCAEYFHMAAAEVQGVTVPDGLLFVPYLHAERCPVELPAPRGALLGVTGATTRAQILLAVLEGAALSLRWCAELLGMEKVGLLKVVGGGARSEAWLRMIADNLNVSLLVKPDAHLHPLRGLAALAAVELEWSHSIQDFLREADLREPASNILHPQPCDEGRRRRKFERFKQCVETLGRLDEGHHHHHH	soluble
MLYLNQKPEYSKYDIGDYTYSKVGPTIFSWNDETKLKIGKFCSLGEEVVFLLGGEHRADWITTYPFNALFGEGAHITGHPSSKGDIVVGNDVWIGYQSCISSGVTIGNGAIIGARSVITKDVPPYAIVAGNPAKFVRYRFPQETIDKLESLAWWDWDISVIKGAIPLLLSNKIDEFFTSPEKEST	not soluble
MAHHHHHHMTTADDVCGAYTLSHCDGKVAPTKATLTIHRCGEILTAHVTVVNDLRGTVQYENCHIVGSLHSTGNEASPAQESVEQALSKGFADGFNVVVEMNQVLLKNANSAFVFARLSKLSDLNGEHAIIAINDQPPNQEMTMIFTPDGNGGSFVAANIANSLRGNCQIDAGLLRGDLATTQSEADESLMQVEKLISEGFQQGFHVCMNESGILLQSSEANIQLCRIVSHSDLEGEYVLKSFNGAPVPTRNQPSIVFKSVNTNEVEISIVVANRIRGTAALNQNVLSSEEPLMSTRMMGTEEESQLENAFNVGFQYGLETISHGNELTLKNQDCKFVLVKAAAPAAQHGGPTYKGTYCNKCFKTEGNGLLFRIVNEHEKKWAFYNDTEDLRIRVRATFGARSKIEALDNANMYKDDDGRYVVEVTVDPQATEMFIQGDVNGFRVLYDAQPI	not soluble
MSLKVATFIEPGKMVITDTPKPVIEQETDAVIKIVRACVCGSDLWWYRGISKRESGSFAGHEAIGIVEEVGTKVTDVSKGDFVIVPFTHGCGQCPSCKAGFDGNCTNHQAAKNVGYQGQYLRYTNANWALVKIPGQPSDYDNETLNSLLTLSDVMATGYHAAATAEVKEGDTVVVMGDGAVGLCGVIAAKMLGANRIIAMSRHKDRQELALTFGATDIVEERGDEAVKRVLDLTNQAGADAVLECVGTEQSVDTATQIARPGAVIGRVGIPQNPDMNTNNLFWKNIGLRGGIASVTTFDKSVLLDAVLTHKINPGLVFTKSFVLDDIQKAYEAMDKRDAIKSLVIVDEGHHHHHH	soluble
MCMIVYFFFIHKPLAFYFIRLFHPHPFPVVLDHILLLISSLIGFKSQDSSFRHQNSDCQMNVFQVIIFLLSVLAVFSSADLSIDGESLVLSINEEGPIKVRRARETGEH	not soluble
SKRVNSCVKSDEHVLEELETEGERQLKSLLQHQLDTSVSIEECMSKKESFAPGTMYKPFGKEAAGTMTLSQFQTLHEKDQETASLRELGLNETEILIWKSHVSGEKKTKLRATPEAIQNRLQDIEERISERQRILCLPQRFAKSKQLTRREMEIEKSLFQGADRHSFLKALYYQDEPQKKNKGDPMNNLESFYQEMIMKKRLEEFQLMRGEPFASHSLVSATSVGDSGTAESPSLLQDKGKQAAQGKGPSLHVANVIDFSPEQCWTGPKKLTQPIEFVPEDEIQRNRLSEEEIRKIPMFSSYNPGEPNKVLYLKNLSPRVTERDLVSLFARFQEKKGPPIQFRMMTGRMRGQAFITFPNKEIAWQALHLVNGYKLYGKILVIEFGKNKKQRSNLQATSLISCATGSTTEISGS	not soluble
MTAQTTHTVDAVVIGAGFGGIYAVHKLHHELGLTTVGFDKADGPGGTWYWNRYPGALSDTESHLYRFSFDRDLLQESTWKTTYITQPEILEYLEDVVDRFDLRRHFKFGTEVTSALYLDDENLWEVTTDHGEVYRAKYVVNAVGLLSAINFPNLPGLDTFEGETIHTAAWPEGKSLAGRRVGVIGTGSTGQQVITSLAPEVEHLTVFVRTPQYSVPVGNRPVNPEQIAEIKADYDRIWERAKNSAVAFGFEESTLPAMSVSEEERNRIFQEAWDHGGGFRFMFGTFGDIATDEAANEAAASFIRAKVAEIIEDPETARKLMPKGLFAKRPLCDSGYYEVYNRPNVEAVAIKENPIREVTAKGVVTEDGVLHELDVLVFATGFDAVDGNYRRIEIRGRDGLHINDHWDGQPTSYLGVSTANFPNWFMVLGPNGPFTNLPPSIETQVEWISDTIGYAERNGVRAIEPTPEAEAEWTETCTEIANATLFTKGDSWIFGANIPGKKPSVLFYLGGLRNYRAVMAEVAADGYRGFEVKSAEMVTV	soluble
MKAERILGALYGQALGDAMGMPSELWPRTRVKAHFGWIDRFLPGPKENNAACYFNRAEFTDDTAMALCLADALLECEGNIDPEIIGRNILAWAERFDAFNKNVLGPTSKIALNAIRDGKPIAALENNGVTNGAAMRVSPLGCLLPPTNLTAFIAEVALASSPTHKSDLAVAGAVVVAWAVSRAVNGDTWQSIADSLPAVAHQAQTARITTFSASLSARLELALNIVRHADGVESASEQLYQIIGAGTSTIESVPCAIAMVELANTDPNRCAVLCANLGGDTDTIGAMATAICGALHGVSAINPQLKQTLDEVNQLDFARYAVALASYRQRREALLEHHHHHH	soluble
MKRHIAMAAGALALALGAQAAHAGPTLDAVKKKGFVQCGLTDGVAGFSATNSKGEWEGMDVDICRAVAAAVFGDAGKFKGTALSTQQRFTALQSGEVDVLLRTVTLTQTRDTSLGLAAVAASFYDGQGVLVRKALGVKSAKELDEATICVQPGTTTELNLADWFRANGIKFTPVVIDKVTEVVRAFESGRCDAFTDDASQLAAVRATQVAKPDDFEILPERFSKEPLGPMVRQGDENWLGIVRWTLFALMEAEEYGITQQNVDEMLKSKNPNVLRILGVTPGAGKNMGLDEKWAYNAIKAVGNYSQIFERNVGKDSRLGLQRGVNALWSQGGAMYPWPIR	not soluble
MLDDVRLLANGLLQLGQSLREFVHKTKSQTNDIFQKLNIFDRSFYQLSVVTSEIKEEEEKLKGLSQPITVSIHQPEQRAKHTKEA	not soluble
MLGKEELRNQSIAVIGAGIIGLSIGLKLQQQGYHVTIFDPNGVGNGCSKGNAGHIATEQVFPLATPALIPQLPKMLLSSTSPVSIRWQDLPNTVGWMIRFLLKAKPSAAEASTQAITSLNTRAVQSWNLLLDSIGKSGLIKMDGSLLTFESESLFEGYQSTLDALAEQGVRYELWTQNEIRRRLPELSRKVRFGVFFPETGHTINPYALCVELSNAFEKLGGSLVHEEVDAVSKNGDVLVNTQRMSFDKIVVAAGVHSKALVRQLTGVNVPIQAERGYHLMMNDKRESLPFPISSADRKFIMTPMSEGLRLAGTVEYADVKSPPNMKRAEMLYQQGNAMFESGLNPLEQQEKWMGNRPSTIDSLPVIDQCFNGKIFLAFGHQHLGLTQAAITADLISELVADKPTSVNITPFTLQRFALEHHHHHH	not soluble
KTSDANETEDHLESLICKVGEKSACSLESNLEGLAGVLEADLPNYKSKILRLLCTVARLLPEKLTIYTTLVGLLNARNYNFGGEFVEAMIRQLKESLKANNYNEAVYLVRFLSDLVNCHVIAAPSMVAMFENFVSVTQEEDVPQVRRDWYVYAFLSSLPWVGKELYEKKDAEMDRIFANTESYLKRRQKTHVPMLQVWTADKPHPQEEYLDCLWAQIQKLKKDRWQERHILRPYLAFDSILCEALQHNLPPFTPPPHTEDSVYPMPRVIFRMFDYTDDPEGPVMPGSHSVERFVIEENLHCIIKSHWKERKTCAAQLVSYPGKNKIPLNYHIVEVIFAELFQLPAPPHIDVMYTTLLIELCKLQPGSLPQVLAQATEMLYMRLDTMNTTCVDRFINWFSHHLSNFQFRWSWEDWSDCLSQDPESPKPKFVREVLEKCMRLSYHQRILDIVPPTFSALCPSNPTCIYKYGDESSNSLPGHSVALCLAVAFKSKATNDEIFSILKDVPNPNQDDDDDEGFSFNPLKIEVFVQTLLHLAAKSFSHSFSALAKFHEVFKTLAESDEGKLHVLRVMFEVWRNHPQMIAVLVDKMIRTQIVDCAAVANWIFSSELSRDFTRLFVWEILHSTIRKMNKHVGAQSEQKNLFLVIFQRFIMILTEHLVRCETDGTSVLTPWYKNCIERLQQIFLQHHQIIQQYMVTLENLLFTAELDPHILAVFQQFCALQA	soluble
MTEIERKFLVATFPDGELHAVPLRQGYLTTPTDSIELRLRQQGTEYFMTLKSEGGLSRQEYEIQIDVTQFEMLWPATEGRRVEKTRYSGKLPDGQLFELDVFAGHLSPLMLVEVEFLSEDAAQAFIPPPWFGEEVTEDKRYKNKALALSIP	soluble
MSLKRIDRIYMYVKEKTAHLTKAEYDQGVTTQEIAEVLGIQRTNSSKDLNQLVREGKLIKTDGRPVRYIYQTLVTHVKPVTKHVVSYKETPVSEEKNTLQIDTKDIFAKIIGANGSMKNSVEQAKAAILYPPRGLNCLITGPTGSGKTYFAHAMYHFAKAHHVIDEETELIVFNCADYANNPELLMSHLFGYAKGAFTGADEEKMGIIDQADGGMLFLDEIHRLPPEGQEMIFYFMDHGTYSRLGETTKSHEANVRIVGATTEDPGSSLLETFVRRIPINIKLPAFEKRPANEKVDLVKIMIAHEANRTQRKISLTEDVAKALIGSVTYGNIGQLKSNIQLVCARGFLNHMQSPEISITIDDLTEGIRSGLIQLASNRSAMAELSKILEPKITVAPNEGHHHHHH	soluble
MSAMENESNKDTNTETKSVPEEMEASKYVGQGFQPPAEKDAIEFAKKHRKEFEKVGEQFFKDNFGLKVKATNVVGKDDGVEVYVHCEDHGIVFNASLPLYKDAIHQKGSMRSNDNGDDMSMMVGTVLSGFEYRAQKEKYDNLYKFFKENEKKYQYTGFTKEAINKTQNVGYQNEYFYITYLSRNLKEYRKYYEPLIHKNDKEFKEGMQQARKELDYTANTDAVSTLFSTKKNFTKDNTVDDVIELSNKLKEKPNMPQKSQVTIQLGKSSINTKKPFYDDINPIEGLEHHHHHH	soluble
MKIYVSCDIEGLAGIATFDMEKEDTVLFRELYHQHVAWLIEGIQKSAKNEQITEITIADSHSRGLNLAYARLAEMDERISLVSGFPRMDYMMSGLDSSYDVVFFLGYHAGIGKQKGNMDHGYSASVAYDLKINDLAMNETTINAAYASELGVPVGLIIGESGLEEQLFQEKMMPEVPFVSTKESLGRYAIKNRPMQQVREAIVATTSQVLTSFALSELPRYALQTPATVKLQCVTTAQADRIEMLPMIKRIDGRTVSFVGETMKDVMNGIVAVVGLGGTSY	not soluble
SDLSALRVEEVQNVINAMQKILECPICLELIKEPVSTKCDHIFCKFCMLKLLNQKKGPSQCPLCKNDITKRSLQESTRFSQLVEELLKIICAFQLDTGLEYANSYNFAKK	soluble
MFVIGIPTLNEADNISRLVKQIDEYAVNLGKEIIIINSDSKSTDGTPQIFLETKTYNTKVSIVSEAKGKGYNVRNIFEYAINHVPNFSGLILIDGDVVSMKKMWLEKMFIAIESGNDLIIPNYARKSFEGNATNHFIYPMLVKIFKRDMPYQCISGDFGFSRGLIKDLTLKCNWHKYTLGYGIDIFLTLTAILKSYKIKEIDLQSKIHKKSFEKIEKIFLEVSQSFFETINDNSLNQDKLRLNINFESHSRQFIKSSDILSSNDIENLKLRALFLLQEEKQYLHGLSEVEWDGILSNTINNIYRYSSEEHSLYLLPLYLLRVYNYLKYN	not soluble
